Test results as given in patent publication US20200262868A1 (DIGNIFY THERAPEUTICS, published 2020).
Blank lines part the entries; values can stand above or below the binder they belong to. Where no end group is shown, it is not given here. [ ]: non-standard residue; d: D form. NMeL = CN[C@@H](CC(C)C)C(=O)O; Nle = CCCC[C@H](N)C(=O)O

Key:
[1] = molecular target: T1, human NK2 Receptor (human, UniProt P21452 1-398); test: ratio of Ki hNK1R/hNK2R from the radioligand competition assays
T1 construct: whole, on cells; calcium assays used intact CHO-hNK2 cells; also called hNK2R; hNK2
T1 sequence (looked up): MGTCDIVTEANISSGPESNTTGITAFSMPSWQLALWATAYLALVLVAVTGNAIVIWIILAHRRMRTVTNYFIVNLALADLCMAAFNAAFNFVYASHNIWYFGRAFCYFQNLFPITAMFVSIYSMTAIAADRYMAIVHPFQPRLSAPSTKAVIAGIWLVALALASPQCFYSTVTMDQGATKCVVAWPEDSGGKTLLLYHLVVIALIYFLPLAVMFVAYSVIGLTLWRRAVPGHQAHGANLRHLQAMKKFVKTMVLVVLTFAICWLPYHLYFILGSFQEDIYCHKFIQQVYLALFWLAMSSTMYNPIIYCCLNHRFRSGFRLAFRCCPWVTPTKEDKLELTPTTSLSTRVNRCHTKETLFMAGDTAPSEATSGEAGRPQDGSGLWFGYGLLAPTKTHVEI
Description: (§1) Filtration Assays: Stock solutions of compounds (10 mM) were prepared in DMSO and stored at −20° C. until use. Further dilutions were performed in DMSO to provide an 11-point concentration response curve (CRC) spanning final concentrations from 0.01 nM to 10 μM. Radioligand binding experiments were performed immediately after transferring 2 μL of each concentration of test compound to a 96-well plate. […] After drying for 1 h at 40° C., 50 μL of Microscint-20 was added to each filter plate and bound radioactivity was measured using a Microplate TopCount (Packard C9912). […] Filters were washed 4 times with 1 mL ice cold 0.9% NaCl and placed into pico vials with 4 mL of Filter Count.

[2] = molecular target: T2, human NK1 Receptor (human, UniProt P25103 1-407); test: radioligand competition, displacement of 5.0 nM [3H]-septide from CHO-hNK1 membranes
T2 construct: whole, on cells; calcium assays used intact CHO-hNK1 cells; also called hNK1R; hNK1
Description: as §1

[3] = molecular target: T2, human NK1 Receptor; test: cell-based or functional assay
[4] = molecular target: T1, human NK2 Receptor; test: cell-based or functional assay
[5] = molecular target: T1, human NK2 Receptor; test: radioligand competition, displacement of 0.1 nM [125I]-NKA from CHO-hNK2 membranes
Description: as §1

[6] = molecular target: T2, human NK1 Receptor; test: cell-based or functional assay; remark: listed apart in the source
[7] = molecular target: T1, human NK2 Receptor; test: cell-based or functional assay; remark: listed apart in the source

T2 sequence (P25103 whole entry): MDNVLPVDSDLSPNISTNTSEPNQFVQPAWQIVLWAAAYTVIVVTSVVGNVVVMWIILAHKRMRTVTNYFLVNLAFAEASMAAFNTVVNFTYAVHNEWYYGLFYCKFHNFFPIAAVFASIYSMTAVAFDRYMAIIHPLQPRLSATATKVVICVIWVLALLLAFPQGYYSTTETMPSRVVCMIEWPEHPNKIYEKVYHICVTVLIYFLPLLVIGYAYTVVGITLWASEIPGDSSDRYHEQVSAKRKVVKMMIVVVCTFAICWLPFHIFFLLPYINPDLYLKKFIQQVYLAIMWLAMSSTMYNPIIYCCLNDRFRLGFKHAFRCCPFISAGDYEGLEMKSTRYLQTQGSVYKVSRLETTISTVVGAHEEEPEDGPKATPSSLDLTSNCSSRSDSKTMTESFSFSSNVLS

B2: Heptapeptide analog B, Asp-Arg-Phe-Val-Gly-(NMe-Leu)-Nle-NH2 (peptide)
peptide: DRFVG[NMeL][Nle]-NH2
notes: synthetic heptapeptide analog of neurokinin A, Fmoc solid-phase synthesis; also called Compound B; Cmpd B
- hNK2 selectivity ratio [1]: 558 ratio
- Ki [2]: 331 nM
- hNK1 EC50 (intracellular calcium mobilization, FLIPR, CHO-hNK1 cells) [3]: 5.84 nM
- hNK2 EC50 (intracellular calcium mobilization, FLIPR, CHO-hNK2 cells) [4]: 0.08 nM
- hNK2 selectivity ratio (EC50 hNK1R/hNK2R) [4]: 70 ratio
- Ki [5]: 0.59 nM
- maximal calcium response compared to Substance P [6]: > 90%
- maximal calcium response compared to Neurokinin A [7]: > 80%

B5: Heptapeptide analog A, Asp-Lys-Phe-Val-Gly-(NMe-Leu)-Met-NH2 (peptide)
peptide: DKFVG[NMeL]M-NH2
notes: synthetic heptapeptide analog of neurokinin A, Fmoc solid-phase synthesis; also called Compound A; Cmpd A
- Ki [2]: 50.1 nM
- hNK1 EC50 (intracellular calcium mobilization, FLIPR, CHO-hNK1 cells) [3]: 0.95 nM
- hNK2 EC50 (intracellular calcium mobilization, FLIPR, CHO-hNK2 cells) [4]: 0.14 nM
- Ki [5]: 0.2 nM
- maximal calcium response compared to Substance P [6]: > 90%
- maximal calcium response compared to Neurokinin A [7]: > 80%

B8: Heptapeptide analog I, Asp-Arg-Phe-Val-(β-Ala)-Leu-Met-NH2 (peptide)
peptide: DRFVALM
HELM: PEPTIDE1{D.R.F.V.[bAla].L.M.[am]}$$$$V2.0; N-terminus assumed
SMILES: CSCC[C@H](NC(=O)[C@H](CC(C)C)NC(=O)CCNC(=O)[C@@H](NC(=O)[C@H](Cc1ccccc1)NC(=O)[C@H](CCCNC(=N)N)NC(=O)[C@@H](N)CC(=O)O)C(C)C)C(N)=O
notes: synthetic heptapeptide analog of neurokinin A, Fmoc solid-phase synthesis; also called Compound I; Cmpd I
- hNK2 selectivity ratio [1]: 108 ratio
- Ki [2]: 95.5 nM
- hNK1 EC50 (intracellular calcium mobilization, FLIPR, CHO-hNK1 cells) [3]: 1.83 nM
- hNK2 EC50 (intracellular calcium mobilization, FLIPR, CHO-hNK2 cells) [4]: 0.15 nM
- hNK2 selectivity ratio (EC50 hNK1R/hNK2R) [4]: 12 ratio
- Ki [5]: 0.88 nM
- maximal calcium response compared to Substance P [6]: > 90%
- maximal calcium response compared to Neurokinin A [7]: > 80%

B10: Heptapeptide analog D, Asp-Lys-Phe-Val-Gly-Leu-Met-NH2 (peptide)
peptide: DKFVGLM-NH2
- maximal calcium response compared to Substance P [6]: > 90%
- maximal calcium response compared to Neurokinin A [7]: > 80%

Other lines, results leading:

- hNK2 selectivity ratio [1]: 72.5 ratio
- Ki [2]: 126 nM
- hNK1 EC50 (intracellular calcium mobilization, FLIPR, CHO-hNK1 cells) [3]: 1.71 nM
- hNK2 EC50 (intracellular calcium mobilization, FLIPR, CHO-hNK2 cells) [4]: 0.2 nM
- hNK2 selectivity ratio (EC50 hNK1R/hNK2R) [4]: 9 ratio
- Ki [5]: 1.74 nM
- maximal calcium response compared to Substance P [6]: > 90%
- maximal calcium response compared to Neurokinin A [7]: > 80%
B1: Heptapeptide analog J, Asp-Arg-Phe-Val-Gly-Leu-Nle-NH2 (peptide)
peptide: DRFVGLX
HELM: PEPTIDE1{D.R.F.V.G.L.[Nle].[am]}$$$$V2.0; N-terminus assumed
SMILES: CCCC[C@H](NC(=O)[C@H](CC(C)C)NC(=O)CNC(=O)[C@@H](NC(=O)[C@H](Cc1ccccc1)NC(=O)[C@H](CCCNC(=N)N)NC(=O)[C@@H](N)CC(=O)O)C(C)C)C(N)=O
notes: synthetic heptapeptide analog of neurokinin A, Fmoc solid-phase synthesis; also called Compound J; Cmpd J

- hNK2 selectivity ratio [1]: 176 ratio
- Ki [2]: 1200 nM
- hNK1 EC50 (intracellular calcium mobilization, FLIPR, CHO-hNK1 cells) [3]: 29.5 nM
- hNK2 EC50 (intracellular calcium mobilization, FLIPR, CHO-hNK2 cells) [4]: 1.16 nM
- hNK2 selectivity ratio (EC50 hNK1R/hNK2R) [4]: 25 ratio
- Ki [5]: 6.85 nM
- maximal calcium response compared to Substance P [6]: > 90%
- maximal calcium response compared to Neurokinin A [7]: > 80%
B3: Heptapeptide analog K, Asp-Arg-Phe-Val-(β-Ala)-Leu-Nle-NH2 (peptide)
peptide: DRFVALX
HELM: PEPTIDE1{D.R.F.V.[bAla].L.[Nle].[am]}$$$$V2.0; N-terminus assumed
SMILES: CCCC[C@H](NC(=O)[C@H](CC(C)C)NC(=O)CCNC(=O)[C@@H](NC(=O)[C@H](Cc1ccccc1)NC(=O)[C@H](CCCNC(=N)N)NC(=O)[C@@H](N)CC(=O)O)C(C)C)C(N)=O
notes: synthetic heptapeptide analog of neurokinin A, Fmoc solid-phase synthesis; also called Compound K; Cmpd K

- hNK2 selectivity ratio [1]: 189 ratio
- Ki [2]: 3090 nM
- hNK1 EC50 (intracellular calcium mobilization, FLIPR, CHO-hNK1 cells) [3]: 78.2 nM
- hNK2 EC50 (intracellular calcium mobilization, FLIPR, CHO-hNK2 cells) [4]: 3 nM
- hNK2 selectivity ratio (EC50 hNK1R/hNK2R) [4]: 26 ratio
- Ki [5]: 16.4 nM
- maximal calcium response compared to Substance P [6]: > 90%
- maximal calcium response compared to Neurokinin A [7]: > 80%
B4: Heptapeptide analog G, Asp-Lys-Phe-Val-(β-Ala)-Leu-Nle-NH2 (peptide)
peptide: DKFVALX
HELM: PEPTIDE1{D.K.F.V.[bAla].L.[Nle].[am]}$$$$V2.0; N-terminus assumed
SMILES: CCCC[C@H](NC(=O)[C@H](CC(C)C)NC(=O)CCNC(=O)[C@@H](NC(=O)[C@H](Cc1ccccc1)NC(=O)[C@H](CCCCN)NC(=O)[C@@H](N)CC(=O)O)C(C)C)C(N)=O
notes: synthetic heptapeptide analog of neurokinin A, Fmoc solid-phase synthesis; also called Compound G; Cmpd G

- hNK2 selectivity ratio [1]: 167 ratio
- Ki [2]: 20.9 nM
- hNK1 EC50 (intracellular calcium mobilization, FLIPR, CHO-hNK1 cells) [3]: 0.3 nM
- hNK2 EC50 (intracellular calcium mobilization, FLIPR, CHO-hNK2 cells) [4]: 0.16 nM
- hNK2 selectivity ratio (EC50 hNK1R/hNK2R) [4]: 2 ratio
- Ki [5]: 0.12 nM
- maximal calcium response compared to Substance P [6]: > 90%
- maximal calcium response compared to Neurokinin A [7]: > 80%
B6: Heptapeptide analog C, Asp-Arg-Phe-Val-Gly-(NMe-Leu)-Met-NH2 (peptide)
peptide: DRFVGLM
HELM: PEPTIDE1{D.R.F.V.G.[meL].M.[am]}$$$$V2.0; N-terminus assumed
SMILES: CSCC[C@H](NC(=O)[C@H](CC(C)C)N(C)C(=O)CNC(=O)[C@@H](NC(=O)[C@H](Cc1ccccc1)NC(=O)[C@H](CCCNC(=N)N)NC(=O)[C@@H](N)CC(=O)O)C(C)C)C(N)=O
notes: synthetic heptapeptide analog of neurokinin A, Fmoc solid-phase synthesis; also called Compound C; Cmpd C

- hNK2 selectivity ratio [1]: 27.1 ratio
- Ki [2]: 8.32 nM
- hNK1 EC50 (intracellular calcium mobilization, FLIPR, CHO-hNK1 cells) [3]: 0.16 nM
- hNK2 EC50 (intracellular calcium mobilization, FLIPR, CHO-hNK2 cells) [4]: 0.19 nM
- hNK2 selectivity ratio (EC50 hNK1R/hNK2R) [4]: 0.8 ratio
- Ki [5]: 0.31 nM
- maximal calcium response compared to Substance P [6]: > 90%
- maximal calcium response compared to Neurokinin A [7]: > 80%
B7: Heptapeptide analog H, Asp-Arg-Phe-Val-Gly-Leu-Met-NH2 (peptide)
peptide: DRFVGLM-NH2
notes: synthetic heptapeptide analog of neurokinin A, Fmoc solid-phase synthesis; also called Compound H; Cmpd H

- hNK2 selectivity ratio [1]: 122 ratio
- Ki [2]: 257 nM
- hNK1 EC50 (intracellular calcium mobilization, FLIPR, CHO-hNK1 cells) [3]: 6.31 nM
- hNK2 EC50 (intracellular calcium mobilization, FLIPR, CHO-hNK2 cells) [4]: 0.18 nM
- hNK2 selectivity ratio (EC50 hNK1R/hNK2R) [4]: 36 ratio
- Ki [5]: 2.11 nM
- maximal calcium response compared to Substance P [6]: > 90%
- maximal calcium response compared to Neurokinin A [7]: > 80%
B9: Heptapeptide analog E, Asp-Lys-Phe-Val-(β-Ala)-Leu-Met-NH2 (peptide)
peptide: DKFVALM
HELM: PEPTIDE1{D.K.F.V.[bAla].L.M.[am]}$$$$V2.0; N-terminus assumed
SMILES: CSCC[C@H](NC(=O)[C@H](CC(C)C)NC(=O)CCNC(=O)[C@@H](NC(=O)[C@H](Cc1ccccc1)NC(=O)[C@H](CCCCN)NC(=O)[C@@H](N)CC(=O)O)C(C)C)C(N)=O
notes: synthetic heptapeptide analog of neurokinin A, Fmoc solid-phase synthesis; also called Compound E; Cmpd E
